Consider one molecule from patent US20260028417A1 (SICHUAN KELUN BIOTECH BIOPHARMACEUTICAL, published 2026).

By EC50 is commonly meant the concentration that produces a half-maximal response. Broadly, the Kd is the constant that tells how readily two partners part at equilibrium. The koff is the first-order rate constant of dissociation. By kon is commonly meant the rate constant with which the complex forms.

Experiment [1] has as its target T1, human HER3 protein (extracellular sequence with six histidines at the C-terminal) (human, UniProt P21860 20-643).
T1 construct: extracellular domain; Made in HEK293 cells; also called Human HER3-His
As to the kind of experiment: ELISA, coated human HER3-His. As to the method: (§1) The plate was washed 5 times with PBST (0.2% Tween-20), and dried, then 100 μl of TMB (InnoReagents) chromogenic substrate was added to each well, reacted at room temperature for 3-5 minutes, then 50 μl of 2N H₂SO₄ was added to each well to stop the chromogenic reaction, and the absorbance value at OD450 nm was read with a microplate reader. The raw data were imported into GraphPad Prism 6 software for nonlinear curve fitting, and EC50 values were calculated.

Experiment [2] addresses T2, human HER3 on cells (human, UniProt P21860 20-1342).
T2 construct: whole, on cells; also called T47D; NCI-N87
In words: flow cytometry on NCI-N87 cells. As to the method:
(§2) Data processing: the Median PE values were exported, then imported into GraphPad Prism 6 software, and EC50 values were calculated.
In general terms: A flow cytometer gives signals particle by particle.

A further experiment addresses T3, rat HER3 protein (rat, UniProt Q62799 20-643).
T3 construct: whole entry named; also called Rat HER3-His; rat protein
In words: ELISA, coated rat HER3-His. As to the method: as §1

Experiment [3] has as its target T4, monkey HER3 protein (extracellular sequence with six histidines at the C-terminal) (monkey).
T4 construct: Made in HEK293 cells; also called Monkey HER3-His
T4 chain: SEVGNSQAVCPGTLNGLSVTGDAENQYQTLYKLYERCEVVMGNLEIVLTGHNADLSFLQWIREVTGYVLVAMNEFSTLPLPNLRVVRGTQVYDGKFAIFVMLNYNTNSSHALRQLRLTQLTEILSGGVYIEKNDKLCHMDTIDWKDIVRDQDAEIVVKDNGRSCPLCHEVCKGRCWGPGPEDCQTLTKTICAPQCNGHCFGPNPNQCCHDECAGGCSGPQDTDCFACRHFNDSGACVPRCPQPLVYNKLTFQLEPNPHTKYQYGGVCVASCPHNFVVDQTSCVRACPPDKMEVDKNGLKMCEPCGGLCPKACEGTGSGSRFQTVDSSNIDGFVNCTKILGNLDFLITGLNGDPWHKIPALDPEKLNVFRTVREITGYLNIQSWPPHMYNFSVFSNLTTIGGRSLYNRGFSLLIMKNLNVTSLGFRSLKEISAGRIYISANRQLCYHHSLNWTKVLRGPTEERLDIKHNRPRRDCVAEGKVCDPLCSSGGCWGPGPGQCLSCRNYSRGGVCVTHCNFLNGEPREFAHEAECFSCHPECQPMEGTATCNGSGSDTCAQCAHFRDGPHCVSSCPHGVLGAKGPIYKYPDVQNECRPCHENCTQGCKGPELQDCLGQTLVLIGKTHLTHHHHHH
In words: BLI (ForteBio), antibody captured on Protein A sensor, monkey HER3-His in solution, 1:1 global fit. As to the method: (§3) The measured results were entered into Data Analysis 11.0 software, by using 1:1 mode, and global fitting; the results were analyzed to obtain the association rate, dissociation rate and affinity constant.
In general terms: Biolayer interferometry detects binding as a change in optical thickness at a sensor tip.

Experiment [4] deals with T4, monkey HER3 protein (extracellular …). As to the kind of experiment: ELISA, coated monkey HER3-His. As to the method:
as §1
(In general: ELISA stands for enzyme-linked immunosorbent assay.)

Experiment [5] concerns the target T2, human HER3 on cells. In words: flow cytometry on T47D cells. As to the method:
as §2

Experiment [6] has as its target T2, human HER3 on cells. In words: cell-based or functional assay.
Experiment [7] addresses T1, human HER3 protein (extracellular …). As to the kind of experiment: BLI (ForteBio), antibody captured on Protein A sensor, human HER3-His in solution, 1:1 global fit. As to the method:
as §3

Experiment [8] addresses T2, human HER3 on cells. In words: competition flow cytometry on adherent cells (cell line not named in paragraph 175); competitor: 100H7D3-hIgG-Bio, final 200 ng/ml; PE streptavidin. The source says:
Data processing: the Median PE values were exported, and then imported into GraphPad Prism 6 software for nonlinear curve fitting (4-parameter).

For experiment [9], the target named is T2, human HER3 on cells. In words: flow cytometry on NCI-H358 cells. As to the method: as §2

T3 sequence (Q62799 20-643): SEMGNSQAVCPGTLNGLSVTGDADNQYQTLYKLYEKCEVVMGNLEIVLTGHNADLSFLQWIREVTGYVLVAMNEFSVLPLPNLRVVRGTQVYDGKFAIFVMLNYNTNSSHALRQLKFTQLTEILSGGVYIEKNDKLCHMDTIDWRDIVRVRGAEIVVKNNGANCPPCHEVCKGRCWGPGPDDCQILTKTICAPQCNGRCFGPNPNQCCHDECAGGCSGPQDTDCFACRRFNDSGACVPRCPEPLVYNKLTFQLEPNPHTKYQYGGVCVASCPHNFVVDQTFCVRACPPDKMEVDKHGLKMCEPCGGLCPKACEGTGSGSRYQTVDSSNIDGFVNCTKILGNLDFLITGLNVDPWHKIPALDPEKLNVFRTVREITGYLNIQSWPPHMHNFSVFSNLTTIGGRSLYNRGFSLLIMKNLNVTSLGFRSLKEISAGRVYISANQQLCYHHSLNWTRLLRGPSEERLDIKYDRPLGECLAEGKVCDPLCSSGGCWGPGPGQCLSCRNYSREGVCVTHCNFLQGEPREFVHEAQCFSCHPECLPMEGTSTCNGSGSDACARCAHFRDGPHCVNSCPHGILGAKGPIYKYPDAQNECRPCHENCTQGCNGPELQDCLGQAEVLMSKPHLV

B1: 100H7D3-hIgG (anti-human HER3 fully human antibody) (antibody, V domains shown)
VH: EVQLVESGGGVVLPGRSLRLSCAASGFTFSRNAMHWVRQAPGKGLEWVAVIWHDGSNKYYGDSVKGRFTISRDNSKNTLYLQMDSLTAEDTAVYYCARDRGASDFRGQGTLVTVSS
VL: DIQMTQSPSTLSASVGDRVTITCRASQSINNWLAWYQQKPEKAPKLLIYKASSLESGVPSRFSGSGSGTEFTLTISSLQPDDFATYYCQQYNSYSLTFGGGTKVEIKR
notes: Human IgG1/kappa, expressed in CHO-S cells; also called 100H7D3-hIgG-Bio (biotin-labelled)
Consider B1, for which the concentration for a half-maximal effect (EC50) in experiment [1] amounted to 0.00849 µg/mL; with human HER3 on cells [2], 0.218 µg/mL; with rat HER3 protein it was 0.00937 µg/mL; in [4], 0.0131 µg/mL; in the experiment with human HER3 on cells [5], 0.203 µg/mL; in the experiment with human HER3 on cells [9], 0.29 µg/mL. The dissociation constant Kd was 5.44 nM in experiment [3] and 7.47 nM in [7]. The koff in experiment [3] turned out to be 0.000926 s⁻¹; in [7] it was 0.00226 s⁻¹. Besides, the kon in experiment [3] was 170000 M⁻¹ s⁻¹; in experiment [7], 302000 M⁻¹ s⁻¹. Further, the “ADCC activity, EC50 (Jurkat-NFAT/luciferase-CD16a reporter with CHO-S-hHER3 target cells)” value in the experiment with human HER3 on cells [6] was determined as 0.0257 µg/mL. Besides, the “IC50 (read off the curve)” value in the experiment with human HER3 on cells [8] was roughly 0.4 µg/mL.
